Measurements as given in patent publication US7109170B2, “Region of factor IXa protease domain that interacts with factor VIIIa and methods therefor” (Saint Louis University, priority 1999, dated 2006).

Key:
[1] = biological target: mouse monoclonal antibody (mAb) that inhibits the interaction of factor IXa with factor VIIIa; assay: binding of IX proteins to mAb that interferes with IXa:VIIIa interaction (coagulant based / competition assay)
Description: The ability of the IX mutant proteins to bind to a mAb (Bajaj et al., 1985, supra) which interferes with the interaction of IXa and VIIIa was studied using a coagulant based assay as described in Usharani et al., 1985, J. Clin. Invest.

[2] = biological target: T1, factor XIa/Ca2+ (Homo sapiens, UniProt P03951); assay: activation of factor IX mutants by factor XIa/Ca2+ (SDS gel); type: biochemical; conditions: analyzed by SDS gel electrophoresis
T1 construct: purchased Enzyme Research Laboratories (South Bend, Ind.)
Procedure: The rates of activation of the protease domain factor IX mutants by VIIa/TF and by Factor Xla/Ca^2+ was also determined, under conditions described in Mathur et al., 1997, supra, either by VIIa/TF/Ca^2+ or by factor Xla/Ca^2+. The rates of the mutants were similar to that of IXNP as analyzed by SDS gel electrophoresis.
Various DEGR-ck-inhibited factor IXa proteins were prepared for these experiments as follows. IXNP, IXWT, and each mutant factor IX at 200 μg/ml was activated by factor XIa (2 μg/ml) for 90 min. in TBS, pH 7.4 (0.05 M Tris, 0.15 M NaCl, pH 7.4) containing 5 mM Ca^2+. […] DEGR-IXaNP, DEGR-IXaWT, and various DEGR-IXa mutant proteins were prepared as described in Mathur et al., 1997, supra, and free DEGR-ck was removed as described in Sabharwal et al., 1995, supra and Krishnaswamy, 1992, J. Biol. Chem. 267, 23696–23706.

[3] = biological target: T2, factor VIIIa (Homo sapiens, UniProt P00451); assay: inhibition of Xa generation by active site-blocked (DEGR) IXa proteins, absence of phospholipid (Kd,app for VIIIa); type: biochemical; conditions: active site-blocked (DEGR) IXa proteins, no phospholipid
T2 construct: purchased Dr. Leon Hoyer (American Red Cross, Rockville, Md.)
T2 sequence (P00451 20-759 limits assumed): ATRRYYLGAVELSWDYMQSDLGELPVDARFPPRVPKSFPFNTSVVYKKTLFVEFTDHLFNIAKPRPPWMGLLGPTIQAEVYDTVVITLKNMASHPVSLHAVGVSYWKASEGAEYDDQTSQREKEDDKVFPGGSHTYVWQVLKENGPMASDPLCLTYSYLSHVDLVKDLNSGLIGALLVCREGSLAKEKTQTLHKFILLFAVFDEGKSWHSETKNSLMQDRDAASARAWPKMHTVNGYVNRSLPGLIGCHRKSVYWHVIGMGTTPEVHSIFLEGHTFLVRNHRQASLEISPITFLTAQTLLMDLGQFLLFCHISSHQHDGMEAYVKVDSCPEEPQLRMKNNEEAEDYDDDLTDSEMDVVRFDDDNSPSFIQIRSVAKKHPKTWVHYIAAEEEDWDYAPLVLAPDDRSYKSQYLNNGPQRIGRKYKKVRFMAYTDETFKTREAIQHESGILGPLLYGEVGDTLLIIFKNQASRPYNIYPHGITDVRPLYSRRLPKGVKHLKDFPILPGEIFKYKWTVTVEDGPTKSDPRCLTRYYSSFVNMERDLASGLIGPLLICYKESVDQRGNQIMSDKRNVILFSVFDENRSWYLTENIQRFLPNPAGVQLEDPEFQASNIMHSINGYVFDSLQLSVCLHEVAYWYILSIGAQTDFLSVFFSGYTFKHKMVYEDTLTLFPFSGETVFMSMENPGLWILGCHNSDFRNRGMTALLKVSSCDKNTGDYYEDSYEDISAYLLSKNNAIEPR
T2 sequence (P00451 1668-2351 limits assumed): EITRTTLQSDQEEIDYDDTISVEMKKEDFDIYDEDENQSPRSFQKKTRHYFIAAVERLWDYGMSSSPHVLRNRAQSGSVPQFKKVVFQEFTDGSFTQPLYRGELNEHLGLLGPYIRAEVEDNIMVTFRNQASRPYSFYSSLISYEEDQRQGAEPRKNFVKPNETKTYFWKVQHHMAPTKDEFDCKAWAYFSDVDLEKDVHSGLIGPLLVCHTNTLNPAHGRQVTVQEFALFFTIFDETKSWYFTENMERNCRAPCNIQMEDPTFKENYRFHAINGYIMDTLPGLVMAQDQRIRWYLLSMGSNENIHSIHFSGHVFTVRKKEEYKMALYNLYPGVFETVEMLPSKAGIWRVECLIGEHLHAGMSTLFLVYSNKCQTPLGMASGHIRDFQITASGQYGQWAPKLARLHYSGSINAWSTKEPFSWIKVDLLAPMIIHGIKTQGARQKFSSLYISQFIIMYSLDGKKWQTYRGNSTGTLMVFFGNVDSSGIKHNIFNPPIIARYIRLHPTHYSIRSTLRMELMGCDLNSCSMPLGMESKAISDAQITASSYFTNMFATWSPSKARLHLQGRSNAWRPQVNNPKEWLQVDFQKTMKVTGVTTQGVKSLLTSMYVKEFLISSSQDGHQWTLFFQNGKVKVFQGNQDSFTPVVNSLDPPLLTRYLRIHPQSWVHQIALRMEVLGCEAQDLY
Procedure: (§1) Apparent Kds of factor VIIIa binding to various active site-blocked factor IXa proteins were determined from inhibition experiments as detailed in Mathur et al., 1997, supra. […] Reactions were carried out for 2 min and the rates of factor X activation were measured as outlined above.
(§2) Various DEGR-ck-inhibited factor IXa proteins were prepared for these experiments as follows. IXNP, IXWT, and each mutant factor IX at 200 μg/ml was activated by factor XIa (2 μg/ml) for 90 min. in TBS, pH 7.4 (0.05 M Tris, 0.15 M NaCl, pH 7.4) containing 5 mM Ca^2+.
(§3) Enzymol. 74, 481–508 given below:
(§4) [formula] where y is the rate of Xa formation in the presence of a given concentration of DEGR-IXa protein represented by x, a is the maximum rate of Xa formation in the absence of DEGR-IXa, and s is the slope factor. Each point was weighted equally and the data were fitted to Equation 1 using the nonlinear regression analysis program obtained from Erithacus Software (GraFit). […] To obtain the Kd,app values for the interaction of DEGR-IXa proteins with factor VIIIa, the following equation was used, as described by Cheng and Prusoff, 1973, Biochem. Pharmacol. 22, 3099–3108 and further discussed by Craig, 1993, Trends Pharmacol. Sci. 6, 68–71.

[4] = biological target: T3, factor X (Homo sapiens, UniProt P00742); assay: factor X activation by IXa proteins, Ca2+ and phospholipid, without VIIIa; type: biochemical; design: Normal human plasma factor IX (IXNP) and factor X were isolated as described in Bajaj and Birktoft; from tissue; host or cells: human plasma; conditions: no VIIIa, 20 nM IXa, 25 μM phospholipid, 100 nM X
Procedure: (§5) The ability of each activated mutant to activate factor X in the presence and absence of phospholipid and factor VIIIa was determined as follows. The activation was carried out at 37° C. in a 50 μl reaction volume, in TBS/BSA pH 7.4, for various time periods. At the end of the incubation time period, each reaction mixture received 1 μl of 0.5 M EDTA to stop further generation of factor Xa. A 40 μL aliquot was then added to 0.1 ml quartz cuvette containing S-2222 in 75 μL of TBS/BSA, pH 7.4. The final concentration of S-2222 was 100 μM. The p-nitroaniline release was measured continuously (ΔA405/min) for up to 20 min (Sabharwal et al., 1995 supra; Sabharwal et al., 1997, supra). Factor Xa generated was calculated from a standard curve constructed using factor Xa prepared from insolubilized Russell's viper venom.
(§6) Factor X activation measurements were made under four experimental regimes. In one, Ca^2+ and phospholipid were present. In this system activation was carried out for 5–15 minutes and the concentration of each IXa protein was 20 nM, phospholipid was 25 μM, and factor X was 100 nM. In the second regime, Ca^2+, phospholipid and factor VIIIa were present. […] In the third regime, only Ca^2+ was present. Here, activation was carried out for 2–20 min and concentration of each IXa protein was 400 nM and factor X was 1 μM. Finally, in the fourth regime, Ca^2+ and VIIIa were present. […]
Target sequence in this assay (P00742 183-488 limits assumed): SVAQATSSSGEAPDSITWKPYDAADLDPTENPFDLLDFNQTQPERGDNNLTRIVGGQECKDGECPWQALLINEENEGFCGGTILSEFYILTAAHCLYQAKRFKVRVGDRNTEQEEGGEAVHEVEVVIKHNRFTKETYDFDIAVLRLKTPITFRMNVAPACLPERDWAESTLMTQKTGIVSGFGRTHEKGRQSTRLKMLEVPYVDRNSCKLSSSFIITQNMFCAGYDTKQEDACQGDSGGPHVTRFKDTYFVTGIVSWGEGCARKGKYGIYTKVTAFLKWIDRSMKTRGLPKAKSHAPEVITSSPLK
Target sequence in this assay (P00742 41-179 limits assumed): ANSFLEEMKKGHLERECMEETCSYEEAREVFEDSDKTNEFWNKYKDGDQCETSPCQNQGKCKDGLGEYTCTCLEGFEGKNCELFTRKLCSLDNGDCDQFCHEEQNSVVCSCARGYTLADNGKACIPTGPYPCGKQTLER

[5] = biological target: T3, factor X; assay: factor X activation by IXa proteins, Ca2+ only; type: biochemical; design: Normal human plasma factor IX (IXNP) and factor X were isolated as described in Bajaj and Birktoft; from tissue; host or cells: human plasma; conditions: 1 μM X, 400 nM IXa, no phospholipid, no VIIIa
Procedure: as §5, §6
Target sequence in this assay (P00742 183-488 limits assumed): as the sequence (P00742 183-488 limits assumed) above
Target sequence in this assay (P00742 41-179 limits assumed): as the sequence (P00742 41-179 limits assumed) above

[6] = biological target: T2, factor VIIIa; assay: inhibition of Xa generation by active site-blocked (DEGR) IXa proteins, presence of phospholipid (Kd,app for VIIIa); type: biochemical; conditions: active site-blocked (DEGR) IXa proteins, 10 μM phospholipid; read-out: Kd, app for interaction with factor VIIIa, PL-plus system
Procedure: as §1, §2, §3, §4

[7] = biological target: T3, factor X; assay: factor X activation by IXa proteins, Ca2+ and VIIIa, no phospholipid; type: biochemical; design: Normal human plasma factor IX (IXNP) and factor X were isolated as described in Bajaj and Birktoft; from tissue; host or cells: human plasma (factor X); factor VIII obtained from Dr. Leon Hoyer, American Red Cross; conditions: 14 nM VIIIa, 400 nM factor X
Procedure: as §5
(§7) Factor X activation measurements were made under four experimental regimes. In one, Ca^2+ and phospholipid were present. In this system activation was carried out for 5–15 minutes and the concentration of each IXa protein was 20 nM, phospholipid was 25 μM, and factor X was 100 nM. In the second regime, Ca^2+, phospholipid and factor VIIIa were present. […] In the third regime, only Ca^2+ was present. Here, activation was carried out for 2–20 min and concentration of each IXa protein was 400 nM and factor X was 1 μM. Finally, in the fourth regime, Ca^2+ and VIIIa were present. Here, activation was carried out for 15–120 sec and the concentration of each IXa protein was 2 μM, VIIIa was 14 nM, and factor X was 400 nM.
(§8) In all of the above factor X activation experiments, the incubation times chosen were those in which the factor Xa generated was always less than 10 nM. This precautionary measure was taken to prevent activation of factor X by the generated factor Xa (see, e.g., Link. and Castellino, 1982, Arch Biochem. Biophys. 215, 215–221). Further, in those incubation mixtures which contained […], control experiments were also performed in which factor VIIIa was omitted. […] In the presence of factor VIIIa, 10 μM phospholipid was used based upon previous observations (Mathur et al., 1997, supra; van Dieijen et al., 1981, J. Biol. Chem. 256, 3433–3442). The concentrations of factor X selected for each set of reaction conditions are those which are below or at the Km values (van Dieijen et al., supra; Fay and Koshibu, 1998, J Biol. Chem. 273, 19049–19054). In this region of the Michaelis-Menton curve, the rate of formation of factor Xa is proportional to the substrate factor X and therefore to the affinity of the factor IXa enzyme for factor X.
Target sequence in this assay (P00742 183-488 limits assumed, one chain of several): as the sequence (P00742 183-488 limits assumed) above
Target sequence in this assay (P00742 41-179 limits assumed, one chain of several): as the sequence (P00742 41-179 limits assumed) above

[8] = system: Factor IX deficient plasma; assay: coagulant activity of XIa-activated IXa proteins; type: biochemical
[9] = biological target: T3, factor X; assay: factor X activation in complete intrinsic Tenase system (IXa, Ca2+, phospholipid, VIIIa); type: biochemical; design: Normal human plasma factor IX (IXNP) and factor X were isolated as described in Bajaj and Birktoft; from tissue; host or cells: human plasma (factor X); factor VIII obtained from Dr. Leon Hoyer, American Red Cross; conditions: 70 pM VIIIa, 0.5 nM IXa, 15 nM X, phospholipid present
Procedure: as §5, §7, §8
Target sequence in this assay (P00742 183-488 limits assumed, one chain of several): as the sequence (P00742 183-488 limits assumed) above
Target sequence in this assay (P00742 41-179 limits assumed, one chain of several): as the sequence (P00742 41-179 limits assumed) above
Next, the activation of factor X in a complete intrinsic Tenase system (IXa, Ca^2+, phospholipid, VIIIa) was studied.

[10] = from other studies; cited from earlier work
[11] = system: factor VIIIa; conditions: from other studies; cited from earlier work

T1 sequence (P03951 388-625 limits assumed): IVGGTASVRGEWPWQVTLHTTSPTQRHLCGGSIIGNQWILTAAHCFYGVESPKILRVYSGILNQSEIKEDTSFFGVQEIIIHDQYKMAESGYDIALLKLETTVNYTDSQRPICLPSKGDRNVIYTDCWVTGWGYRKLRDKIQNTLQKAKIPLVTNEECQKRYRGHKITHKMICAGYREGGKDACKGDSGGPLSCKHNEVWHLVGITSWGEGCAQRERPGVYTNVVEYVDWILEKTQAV
T1 sequence (P03951 19-387 limits assumed): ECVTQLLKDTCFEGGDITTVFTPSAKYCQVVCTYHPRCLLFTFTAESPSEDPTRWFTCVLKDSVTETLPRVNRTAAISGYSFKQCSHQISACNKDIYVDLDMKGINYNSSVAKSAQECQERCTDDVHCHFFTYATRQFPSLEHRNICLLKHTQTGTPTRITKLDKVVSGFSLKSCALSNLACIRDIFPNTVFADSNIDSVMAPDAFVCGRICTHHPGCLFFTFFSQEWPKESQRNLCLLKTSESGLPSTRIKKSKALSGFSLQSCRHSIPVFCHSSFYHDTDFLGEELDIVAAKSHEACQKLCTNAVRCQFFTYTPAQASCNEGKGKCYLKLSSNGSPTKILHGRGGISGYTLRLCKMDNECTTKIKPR

IXQ50P: factor IX mutant that lacks the EGF1 domain Ca2+ binding site
Kd [1]: ~15 nM
rate of activation by factor XIa/Ca2+ [2]: readily activated

IXaQ50P: activated EGF1 domain mutant Q50P of factor IX
Kd, app for interaction with factor VIIIa, PL-minus system [3]: indistinguishable from that of normal IXa
rate of factor Xa generation [4]: 0.07 nM/min
rate of factor X activation, Ca2+ only [5]: ~0.39 nM/min

IXaPCEGF1: activated factor IX with EGF1 domain replaced by that of protein C
Kd, app for interaction with factor VIIIa, PL-minus system [3]: indistinguishable from that of normal IXa
Kd ([3]; read-out: Kd, app for interaction with factor VIIIa, PL-minus system): 210 ± 10 nM
rate of factor Xa generation [4]: 0.06 nM/min
Kd [6]: 5.71 ± 0.82 nM
rate of factor X activation, Ca2+ only [5]: ~0.48 nM/min

IXPCEGF1: factor IX in which EGF1 residues 52–85 are replaced by residues 51–92 of protein C
rate of activation by factor XIa/Ca2+ [2]: readily activated

IXaT335A: activated factor IX mutant T335A
X-activation rate, PL-minus system [7]: 1.83 ± 0.18 nM/min
coagulant activity as compared to IXaNP [8]: ~35%
X-activation rate, PL-plus system [9]: 1.92 ± 0.11 nM/min
X-activation rate, PL-plus system ([9]; listed as IXaI335A): ~1.9 nM/min

R338A: factor IX R338A mutant described by Chang and coworkers [Protein R338A]
activity of variant [10]: slightly increased activity
factor VIIIa binding / affinity of variant [11]: without an impairment in factor VIIIa binding
